# Test system: Escherichia coli TOP10
# Assay: shrunken log2 fold change of peptide-encoding DNA abundance (4.5 h post-induction vs induction); higher = less antimicrobial activity (less host growth inhibition)
# Conditions: time post-induction: 4.5 h; library: site-saturation at positions 5, 18, 19, 20
# 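Also: peptides expressed intracellularly from a pBAD plasmid library in pooled LB shake-flask culture, induced with 0.3% L-arabinose, DNA abundance read by NGS, three biological replicates, DESeq2 with apeglm shrinkage.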
row,Sequence,shrunken log2 fold change
1,RRIRTRPPRLPRPRPRPGNCPRP,0.0747
2,RRIRDRPPRLPRPRPRPIQVPRP,-0.0916
3,RRIRDRPPRLPRPRPRPWRQPRP,-0.114
4,RRIRLRPPRLPRPRPRPQIEPRP,-0.155
5,RRIRYRPPRLPRPRPRPEGKPRP,-0.0361
6,RRIRERPPRLPRPRPRPHTVPRP,-0.346
7,RRIRMRPPRLPRPRPRPEMGPRP,2.44
8,RRIRLRPPRLPRPRPRPRIGPRP,0.0176
9,RRIRLRPPRLPRPRPRPNLSPRP,-0.548
10,RRIRPRPPRLPRPRPRPRTCPRP,0.322
11,RRIRFRPPRLPRPRPRPFKEPRP,-0.173
12,RRIRVRPPRLPRPRPRPKNAPRP,-0.197
13,RRIRNRPPRLPRPRPRPSWHPRP,-0.535
14,RRIRNRPPRLPRPRPRPFKGPRP,-0.0902
15,RRIRHRPPRLPRPRPRPITYPRP,-0.184
16,RRIRTRPPRLPRPRPRPFFTPRP,-0.118
17,RRIRFRPPRLPRPRPRPTIRPRP,-0.41
18,RRIRNRPPRLPRPRPRPVWKPRP,0.119
19,RRIRRRPPRLPRPRPRPHTSPRP,-0.0729
20,RRIRGRPPRLPRPRPRPGICPRP,0.808
21,RRIRERPPRLPRPRPRPDFVPRP,0.105
22,RRIRQRPPRLPRPRPRPHYVPRP,-0.123
23,RRIRTRPPRLPRPRPRPIARPRP,-0.00992
24,RRIRDRPPRLPRPRPRPACKPRP,0.00774
25,RRIRERPPRLPRPRPRPFDWPRP,0.0619

row,Sequence,shrunken log2 fold change
1,RRIRPRPPRLPRPRPRPNRYPRP,-0.0334
2,RRIRYRPPRLPRPRPRPRYKPRP,-0.451
3,RRIRDRPPRLPRPRPRPYKEPRP,-0.372
4,RRIRARPPRLPRPRPRPRMHPRP,0.324
5,RRIRERPPRLPRPRPRPIYRPRP,-0.565
6,RRIRHRPPRLPRPRPRPSKFPRP,-0.64
7,RRIRDRPPRLPRPRPRPDWQPRP,0.252
8,RRIRGRPPRLPRPRPRPMQPPRP,1.77
9,RRIRHRPPRLPRPRPRPQNSPRP,-0.423
10,RRIRRRPPRLPRPRPRPTHWPRP,0.988
11,RRIRPRPPRLPRPRPRPIHPPRP,0.172
12,RRIRMRPPRLPRPRPRPRHGPRP,0.83
13,RRIRSRPPRLPRPRPRPEELPRP,0.176
14,RRIRARPPRLPRPRPRPEEWPRP,0.0407
15,RRIRPRPPRLPRPRPRPCQYPRP,0.0594
16,RRIRDRPPRLPRPRPRPSNNPRP,-0.487
17,RRIRNRPPRLPRPRPRPICHPRP,-0.1
18,RRIRVRPPRLPRPRPRPVYEPRP,-0.127
19,RRIRTRPPRLPRPRPRPQLMPRP,-0.137
20,RRIRYRPPRLPRPRPRPLCDPRP,-0.12
21,RRIRQRPPRLPRPRPRPMKMPRP,0.0133
22,RRIRFRPPRLPRPRPRPPTVPRP,0.499
23,RRIRERPPRLPRPRPRPIRGPRP,0.0978
24,RRIRLRPPRLPRPRPRPFQWPRP,-0.0972
25,RRIRSRPPRLPRPRPRPYDLPRP,-0.261

row,Sequence,shrunken log2 fold change
1,RRIRARPPRLPRPRPRPNKFPRP,-0.3
2,RRIRYRPPRLPRPRPRPPTTPRP,-0.165
3,RRIRWRPPRLPRPRPRPDFYPRP,-0.11
4,RRIRIRPPRLPRPRPRPTHSPRP,-0.469
5,RRIRFRPPRLPRPRPRPYITPRP,-0.906
6,RRIRCRPPRLPRPRPRPAFMPRP,0.117
7,RRIRHRPPRLPRPRPRPHENPRP,-0.0891
8,RRIRLRPPRLPRPRPRPTKFPRP,-0.0571
9,RRIRSRPPRLPRPRPRPEMFPRP,-0.0055
10,RRIRCRPPRLPRPRPRPPGWPRP,0.612
11,RRIRSRPPRLPRPRPRPGWAPRP,0.706
12,RRIRIRPPRLPRPRPRPREYPRP,-0.565
13,RRIRPRPPRLPRPRPRPEPEPRP,0.433
14,RRIRIRPPRLPRPRPRPDAFPRP,-0.15
15,RRIRERPPRLPRPRPRPLKHPRP,-0.425
16,RRIRNRPPRLPRPRPRPTMRPRP,0.746
17,RRIRPRPPRLPRPRPRPDSDPRP,0.0303
18,RRIRYRPPRLPRPRPRPAFTPRP,-0.639
19,RRIRRRPPRLPRPRPRPDRQPRP,-0.114
20,RRIRWRPPRLPRPRPRPFHRPRP,-0.2
21,RRIRQRPPRLPRPRPRPIQHPRP,0.14
22,RRIRPRPPRLPRPRPRPNFNPRP,-0.273
23,RRIRTRPPRLPRPRPRPHKRPRP,-0.0155
24,RRIRLRPPRLPRPRPRPQSEPRP,-0.0331
25,RRIRYRPPRLPRPRPRPVERPRP,0.00806

row,Sequence,shrunken log2 fold change
1,RRIRKRPPRLPRPRPRPGAAPRP,1.54
2,RRIRYRPPRLPRPRPRPMTWPRP,-0.31
3,RRIRPRPPRLPRPRPRPIMSPRP,0.0779
4,RRIRDRPPRLPRPRPRPAYEPRP,-0.0214
5,RRIRSRPPRLPRPRPRPIQLPRP,-0.238
6,RRIRARPPRLPRPRPRPSGKPRP,-0.0838
7,RRIRFRPPRLPRPRPRPHKAPRP,0.0324
8,RRIRTRPPRLPRPRPRPQNGPRP,-0.456
9,RRIRDRPPRLPRPRPRPHQDPRP,0.00101
10,RRIRCRPPRLPRPRPRPVHAPRP,0.065
11,RRIRYRPPRLPRPRPRPMLPPRP,-0.0473
12,RRIRHRPPRLPRPRPRPGDFPRP,-0.147
13,RRIRMRPPRLPRPRPRPIFQPRP,-0.115
14,RRIRLRPPRLPRPRPRPTYCPRP,-1
15,RRIRWRPPRLPRPRPRPKKQPRP,0.176
16,RRIRFRPPRLPRPRPRPCGYPRP,-0.0542
17,RRIRHRPPRLPRPRPRPEVAPRP,-0.00165
18,RRIRTRPPRLPRPRPRPRPTPRP,0.626
19,RRIRNRPPRLPRPRPRPRQPPRP,0.428
20,RRIRPRPPRLPRPRPRPLRCPRP,0.394
21,RRIRERPPRLPRPRPRPWPYPRP,0.00489
22,RRIRFRPPRLPRPRPRPKLLPRP,0.0539
23,RRIRARPPRLPRPRPRPLYTPRP,-0.0964
24,RRIRFRPPRLPRPRPRPEDQPRP,0.502
25,RRIRVRPPRLPRPRPRPVNLPRP,-0.322

row,Sequence,shrunken log2 fold change
1,RRIRMRPPRLPRPRPRPWNKPRP,-0.535
2,RRIRLRPPRLPRPRPRPQPQPRP,0.396
3,RRIRGRPPRLPRPRPRPWRAPRP,0.311
4,RRIRNRPPRLPRPRPRPDFIPRP,-0.111
5,RRIRQRPPRLPRPRPRPFFYPRP,-0.257
6,RRIRWRPPRLPRPRPRPMGMPRP,0.403
7,RRIRPRPPRLPRPRPRPNHSPRP,-0.553
8,RRIRWRPPRLPRPRPRPGSEPRP,0.385
9,RRIRFRPPRLPRPRPRPPQMPRP,0.333
10,RRIRHRPPRLPRPRPRPITCPRP,-0.0107
11,RRIRSRPPRLPRPRPRPGVRPRP,-0.0323
12,RRIRQRPPRLPRPRPRPNGWPRP,-0.0145
13,RRIRQRPPRLPRPRPRPSDVPRP,-0.0706
14,RRIRARPPRLPRPRPRPPPNPRP,1.35
15,RRIRGRPPRLPRPRPRPMGIPRP,0.0179
16,RRIRERPPRLPRPRPRPNGDPRP,-0.0249
17,RRIRHRPPRLPRPRPRPRFMPRP,0.0821
18,RRIRKRPPRLPRPRPRPSVNPRP,-0.0205
19,RRIRTRPPRLPRPRPRPRGVPRP,0.196
20,RRIRERPPRLPRPRPRPMLPPRP,-0.397
21,RRIRCRPPRLPRPRPRPFGEPRP,-0.282
22,RRIRLRPPRLPRPRPRPCVFPRP,-0.13
23,RRIRWRPPRLPRPRPRPSYSPRP,-0.705
24,RRIRVRPPRLPRPRPRPSDVPRP,-0.184
25,RRIRIRPPRLPRPRPRPINWPRP,-0.402

# Source: the supplement of paper PMC9112550, “Optimization of the antimicrobial peptide Bac7 by deep mutational scanning” (BMC Biology, 2022)
